Test results as given in IntAct's records for PubMed 29477555.

B1: Serine protease HTRA3 (Homo sapiens), P83110-1 (parent)
chain: MQARALLLAALAALALAREPPAAPCPARCDVSRCPSPRCPGGYVPDLCNCCLVCAASEGEPCGGPLDSPCGESLECVRGLCRCRWSHAVCGTDGHTYANVCALQAASRRALQLSGTPVRQLQKGACPLGLHQLSSPRYKFNFIADVVEKIAPAVVHIELFLRHPLFGRNVPLSSGSGFIMSEAGLIITNAHVVSSNSAAPGRQQLKVQLQNGDSYEATIKDIDKKSDIATIKIHPKKKLPVLLLGHSADLRPGEFVVAIGSPFALQNTVTTGIVSTAQREGRELGLRDSDMDYIQTDAIINYGNSGGPLVNLDGEVIGINTLKVTAGISFAIPSDRITRFLTEFQDKQIKDWKKRFIGIRMRTITPSLVDELKASNPDFPEVSSGIYVQEVAPNSPSQRGGIQDGDIIVKVNGRPLVDSSELQEAVLTESPLLLEVRRGNDDLLFSIAPEVVM
B2: Serine protease HTRA3 (Homo sapiens), P83110-2 (parent)
chain: MQARALLLAALAALALAREPPAAPCPARCDVSRCPSPRCPGGYVPDLCNCCLVCAASEGEPCGGPLDSPCGESLECVRGLCRCRWSHAVCGTDGHTYANVCALQAASRRALQLSGTPVRQLQKGACPLGLHQLSSPRYKFNFIADVVEKIAPAVVHIELFLRHPLFGRNVPLSSGSGFIMSEAGLIITNAHVVSSNSAAPGRQQLKVQLQNGDSYEATIKDIDKKSDIATIKIHPKKKLPVLLLGHSADLRPGEFVVAIGSPFALQNTVTTGIVSTAQREGRELGLRDSDMDYIQTDAIINYGNSGGPLVNLDGEVIGINTLKVTAGISFAIPSDRITRFLTEFQDKQIKAPSLAVH

Variants of: B1
Conditions: with tcpa_human TCP1, P17987
Target sequence in this assay (P17987 whole entry): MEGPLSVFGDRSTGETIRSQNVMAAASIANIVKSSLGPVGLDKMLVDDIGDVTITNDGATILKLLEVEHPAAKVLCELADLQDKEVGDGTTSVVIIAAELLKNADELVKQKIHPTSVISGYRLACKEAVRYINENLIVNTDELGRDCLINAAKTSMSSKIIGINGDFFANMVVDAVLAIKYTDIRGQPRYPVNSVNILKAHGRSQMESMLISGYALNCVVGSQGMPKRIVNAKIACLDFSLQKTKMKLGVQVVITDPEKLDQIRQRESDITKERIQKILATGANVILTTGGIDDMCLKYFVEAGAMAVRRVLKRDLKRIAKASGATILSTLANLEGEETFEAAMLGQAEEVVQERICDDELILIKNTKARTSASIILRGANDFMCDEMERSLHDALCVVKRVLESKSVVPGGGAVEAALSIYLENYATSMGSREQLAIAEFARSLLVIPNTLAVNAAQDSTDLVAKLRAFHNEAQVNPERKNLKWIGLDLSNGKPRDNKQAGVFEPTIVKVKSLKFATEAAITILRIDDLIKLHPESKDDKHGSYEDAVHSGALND
With MQARALLLAALAALALAREPPAAPCPARCDVSRCPSPRCPGGYVPDLCNCCLVCAASEGEPCGGPLDSPCGESLECVRGLCRCRWSHAVCGTDGHTYANVCALQAASRRALQLSGTPVRQLQKGACPLGLHQLSSPRYKFNFIADVVEKIAPAVVHIELFLRHPLFGRNVPLSSGSGFIMSEAGLIITNAHVVSSNSAAPGRQQLKVQLQNGDSYEATIKDIDKKSDIATIKIHPKKKLPVLLLGHSADLRPGEFVVAIGSPFALQNTVTTGIVSTAQREGRELGLRDSDMDYIQTDAIINYGNAGGPLVNLDGEVIGINTLKVTAGISFAIPSDRITRFLTEFQDKQIKDWKKRFIGIRMRTITPSLVDELKASNPDFPEVSSGIYVQEVAPNSPSQRGGIQDGDIIVKVNGRPLVDSSELQEAVLTESPLLLEVRRGNDDLLFSIAPEVVM [S305A] the “effect of a mutation on the interaction” value was “decreasing interaction strength”.

Variants of: B2
Conditions: with tcpa_human TCP1, P17987
Target sequence in this assay (P17987 whole entry): as the sequence (P17987 whole entry) above
In the case of MQARALLLAALAALALAREPPAAPCPARCDVSRCPSPRCPGGYVPDLCNCCLVCAASEGEPCGGPLDSPCGESLECVRGLCRCRWSHAVCGTDGHTYANVCALQAASRRALQLSGTPVRQLQKGACPLGLHQLSSPRYKFNFIADVVEKIAPAVVHIELFLRHPLFGRNVPLSSGSGFIMSEAGLIITNAHVVSSNSAAPGRQQLKVQLQNGDSYEATIKDIDKKSDIATIKIHPKKKLPVLLLGHSADLRPGEFVVAIGSPFALQNTVTTGIVSTAQREGRELGLRDSDMDYIQTDAIINYGNAGGPLVNLDGEVIGINTLKVTAGISFAIPSDRITRFLTEFQDKQIKAPSLAVH [S305A], the “effect of a mutation on the interaction” value is reported as “decreasing interaction strength”.
